Measurements: publication doi:10.1101/2024.10.27.620470 (bioRxiv, 2024)
Values joined by “and” are separate entries in the source; they are usually repeats but may differ in a detail not shown here. Identical values can stand only once.

How the values were obtained:
[1] = target: NTD-N_(41-174) protein double mutant (WV133134AA) (SARS-CoV-2) (UniProt P0DTC9); experiment: ITC
[2] = target: N-terminal domain of SARS-CoV-2 nucleocapsid protein (NTD-N_(41-174)) (SARS-CoV-2) (UniProt P0DTC9); experiment: ITC
[3] = target: GFP-tagged G3BP1_(NTF-2) (G3BP1_(NTF-2)-GFP) (human, UniProt Q13283 1-139); experiment: fluorescence intensity-based PPIs plate assay
[4] = target: NTF2-like domain of Ras GTPase-activating protein SH3-domain-binding protein 1 (G3BP1_(NTF-2)) (human, UniProt Q13283 1-139); experiment: ITC

NTF2-like domain of Ras GTPase-activating protein SH3-domain-binding protein 1 (G3BP1_(NTF-2)) (from UniProt Q13283 1-139) (domain or fragment)
fold higher KD than the single mutants (V134A and W133A) [1]: 2 fold and 4 fold | Kd [2]: 5.5 µM

KDGIIAAATEG [mutant N_(128-138) peptide 2 (KDGIIAAATEG)]
binding result [3]: binds

KAGIIAAATEG [mutant N_(128-138) peptide 3 (KAGIIAAATEG)]
binding result [3]: binds

KDGIIWVATEG [N_(128-138) peptide 1 (KDGIIWVATEG)]
Kd [4]: 11.8 µM
